Measurements as given in the DeepSol protein solubility set.

Assay: soluble on expression in E. coli; label from the status in PepcDB or PDB records

For “MSLAVKPIPEGQHSITPYLAINDAAKAIEFYKQAFGAKEMFRLDAPGGRVGHAELRIGDSSLMLGDPCDMEGGLTASQKLSGAGVGLHLYVEDCDKVYAQALAAGGIQLHPLTDQFYGDRSGTLKDPFGNIWFVSTHKEDLTPDEIRARAAKMFGEGHHHHHH”, which “soluble on expression in E. coli” value is on record?
Its value is “soluble”.

Which “soluble on expression in E. coli” value does the source give for “SMSEATPCIKAISPSEGWTTGGATVIIIGDNFFDGLQVVFGTMLVWSELITPHAIRVQTPPRHIPGVVEVTLSYKSKQFCKGAPGRFVYTALNEPTIDYGFQRLQKVIPRHPGDPERLPKEVLLKRAADLVEALYGMPHNNQEIILKRAADIAEALYSV” here?
The value was “soluble”.

Which “soluble on expression in E. coli” value does the source give for “MNYEGKTKIVKVTGDYALLEFKDDITAGDGLKHDVLTGKGSICAETTAILMKYLSEKGIKTHLVEYIPPRTLKVIPLKMFPLEVVVRLKKAGSFVRRYGGAEGEDLPVPLVEFFIKDDERHDPMVCVDHLEILGIATKKQAEKMKEAAVKITLALKEFFERANFELWDIKYEFGLDKDGNVVLGDEISPDTFRLRKKGEIFDKDVYRRDLGDPLKKYREVLELCRSLNSQ” here?
Its value is “soluble”.

For “MEFGEKLIHLRKKNRLTQKQLAAKIGTTASTISKYENDNHRPPIFILAKLAEILGTTTDFLLDDVAGLREKNSVNAFPLIGNPELEKWYLELPYTYSEEELLMLKRIADAIENKK”, which “soluble on expression in E. coli” value is on record?
Its value is “not soluble”.

Which “soluble on expression in E. coli” value does the source give for KSCCSCCPAECEKCAKDCVCKGGEAAEAEAEKCSCCQ here?
The value was “soluble”.

With “MAEASSLVGKLETEVEIKASAKKFHHMFTERPHHVSKATPDKIHGYGKLTVGKNKIEAVDPEKNLITFKVLEGDLMNEYKSFAFTLQVTPKQGESGSIAHWHLEYEKISEEVAHPETLLQFCVEISKEIDEHLLAEE” as the sequence, how does the “soluble on expression in E. coli” value read?
The value was “soluble”.

Which “soluble on expression in E. coli” value does the source give for “GSQNNECKMVDLRGAKVASFTVEGCELICLPQAFDLFLKHLVGGLHTVYTKLKRLEITPVVCNVEQVRILRGLGAIQPGVNRCKLISRKDFETLYNDCTNA” here?
The value was “soluble”.

With “MATKFNRILVGVDDSADALLAFDYAIHQAKQDGAELVIISILENDEMNVYQALSKDYIHGERQELEQHILKYQKQAQAAGVTKVHAMIAEGEPGETIVKEVIPHVQPDLLIIGSLAKKGIAKHFGSQAAYMAKYAPISVLVIR” as the sequence, how does the “soluble on expression in E. coli” value read?
The value was “not soluble”.

For “DVQLVESGGGLVQPGGSRKLSCAASGFTFSSFGMHWVRQAPEKGLEWVAYISSGSSTLHYADTVKGRFTISRDNPKNTLFLQMTSLRSEDTGMYYCARWGNYPYYAMDYWGQGTSVTVSSAKTTPPSVYPLAPGSAAQTNSMVTLGCLVKGYFPEPVTVTWNSGSLSSGVHTFPAVLQSDLYTLSSSVTVPSSPRPSETVTCNVAHPASSTKVDKKIVPRDC”, which “soluble on expression in E. coli” value is on record?
Its value is “soluble”.

With “MGSDKIHHHHHHENLYFQGMTKAIQSSVQVGELATGQALTVPIYSFMGSENSAPSVYIQANVHGAEVQGNAVIYQLMTLLEGYQVLGDITLAPLANPLGINQKSGEFTLGRFDPITGVNWNREYFDHNVDIQNWYAEHQHLTNSELFCAYRSMLVETCQARLTHSFGISTGHRLAVNLQAMAHQADIVLDLHTGPKSCKHLYCPEYDIDAARFFSIPYTLIIPNSFGGAMDEATFCPWWQLTEYATSQGREFSVPVSAFTLELASQERIDLADALEDAKGILAYLSHRGVIAEKVNPASMERFGCYLKDYKKFHAPKAGLIEYCASVGEPLTAGKPLVNILRIDLYGSEQAYQAISLPMDCVPILHFASASVLQGTELYKVMTNVFPLQPS” as the sequence, how does the “soluble on expression in E. coli” value read?
Its value is “soluble”.

For “MHVFDNNGIELKAECSIGEEDGVYGLILESWGPGDRNKDYNIALDYIIERLVDSGVSQVVVYLASSSVRKHMHSLDERKIHPGEYFTLIGNSPRDIRLKMCGYQAYFSRTGRKEIPSGNRTKRILINVPGIYSDSFWASIIRGELSELSQPTDDESLLNMRVSKLIKKTLSQPEGSRKPVEVERLQKVYVRDPMVKAWILQQSKGICENCGKNAPFYLNDGNPYLEVHHVIPLSSGGADTTDNCVALCPNCHRELHYSKNAKELIEMLYVNINRLQKLEHHHHHH”, which “soluble on expression in E. coli” value is on record?
The value was “soluble”.

For “MSLGLTTKPLSLKVNAALFDVDGTIIISQPAIAAFWRDFGKDKPYFDAEHVIQVSHGWRTFDAIAKFAPDFANEEYVNKLEAEIPVKYGEKSIEVPGAVKLCNALNALPKEKWAVATSGTRDMAQKWFEHLGIRRPKYFITANDVKQGKPHPEPYLKGRNGLGYPINEQDPSKSKVVVFEDAPAGIAAGKAAGCKIIGIATTFDLDFLKEKGCDIIVKNHESIRVGGYNAETDEVEFIFDDYLYAKDDLLKWEGHHHHHH”, which “soluble on expression in E. coli” value is on record?
The value was “soluble”.

For “MAGVRQHGWRAIPAVCSEYGADTLPDRYRSDGRCLLFRQQAGISALKQELEVKTPYRAMNHPVIGVVTKADLASMEQISLVKCWLREAGAHNVLVTSAVNNNGVTELFALLHTEEGCR”, which “soluble on expression in E. coli” value is on record?
The value was “not soluble”.

For “MNTKYNKEFLLYLAGFVDGDGSIIAQIEPNQSYKFKHRLKLTFKVTQKTQRRWFLDKLVDEIGVGYVSDSGSVSNYILSEIKPLHNFLTQLQPFLKLKQKQANLVLKIIEQLPSAKESPDKFLEVCTWVDQIAALNDSKTRKTTSETVRAVLD”, which “soluble on expression in E. coli” value is on record?
Its value is “soluble”.

For “MKVLLANPRGFCAGVDRAIEIVKRTIDMLGTPIYVRHEVVHNRFVVDDLKQRGAIFVEELHQVPDGATVIFSAHGVSQAVRRQAAQRGLKVFDATCPLVTKVHLDVARHCRTGRDMILIGHAGHPEVEGTMGQWDQERGTGRIYLVENIDDVATLHVAQPHHLAYTTQTTLSVDDTRNIIDALRQRFPTIQGPKNNDICYATQNRQDAVRELARECDLVLVVGSPNSSNSNRLSELAQREGVASYLIDSAAEIDPAWVIDKHHIGVTAGASAPQVLVDGVLARLYELGAT”, which “soluble on expression in E. coli” value is on record?
The value was “not soluble”.

Which “soluble on expression in E. coli” value does the source give for “MGSDKIHHHHHHMYQIQIRIWFNFISKNKHHMLGTMSDSYDFFLSMSEITFALDPKYEFDKDIGCVLSLIKNTKELRFRINQYINKYKNKSPSLNRLNTFINTLEENENFYLLPAIENVSQTQLIKLQTSLSLVHLDELGKDAYIKSFNSNFSDFIDQYSMNGIDPKEVKGKKKIGEGFKANRVCRFCNNKNEKPTTFAKEAHAISESLGNKKIILNEECDLCNEYFDQNIERDIDTYLKLYSSFFRVKNKDNKVSKIKGKNFSFEYINTTIDGHDRHIDFVLAHTPTNSESCNSDSEPPKNVDLCFHQKIRKQNIYKSLVKFALSVIHDRKDLSEFNKAIEWIKSPTKFYEQLPKIAILKNYQFYCTEPALIVYISKNKKQGLPYAVGEFHYTFLTYIFIIPLFKSDEVEFSQQNNFDDFIKFFPQFKRMDEWSFEDFSDYEEKEFVLNMILSQRDEG” here?
Its value is “not soluble”.

Which “soluble on expression in E. coli” value does the source give for “DYKDDDDKDLKCTTNNMRVWDCTWPAPLGVSPGTVKDICIKDRFHSCHPLETTNVKIPALSPGDHEVTINYLNGFQSKFTLNEKDVSLIPETPEILDLSADFFTSSLLLKWNDRGSALPHPSNATWEIKVLQNPRTEPVALVLLNTMLSGKDTVQHWNWTSDLPLQCATHSVSIRWHIDSPHFSGYKEWSDWSPLKNISWIRNTETNVFPQDKVVLAGSNMTICCMSPTKVLSGQIGNTLRPLIHLYGQTVAIHILNIPVSENSGTNIIFITDDDVYGTVVFAGYPPDVPQKLSCETHDLKEIICSWNPGRITGLVGPRNTEYTLFESISGKSAVFHRIEGLTNETYRLGVQMHPGQEIHNFTLTGRNPLGQAQSAVVINVTERVAPHDPTSLKVKDINSTVVTFSWYLPGNFTKINLLCQIEICKANSKKEVRNATIRGAEDSTYHVAVDKLNPYTAYTFRVRCSSKTFWKWSRWSDEKRHLTTEAT” here?
Its value is “soluble”.

For “MGSDKIHHHHHHMQSKSDIQRLLTIMERLRDPQTGCPWDKAQSYQTIVPFTLEEAFEVADTIERGALDELPGELGDLLFQVIFYCQLGKEQGRFDFDQVVEKICTKLTERHPHVFGEMTQASSESVRETWESIKAKERKGRSLHSVLDDIPRSLPALTRAAKVQRRVATVGFDWNDLGPVVAKIHEEIDEVMVEVAAQDRDKMEDELGDLLFAVVNLARHLKLDPEQALRRATNKFEHRFRGVEALAAQSGKAMQEHSLTELDAYWEQVKRNDPLKG”, which “soluble on expression in E. coli” value is on record?
The value was “not soluble”.

For “MGSDKIHHHHHHMIVLIGGEKGGSGKSCLAQNIAVFLTTECGASVIMVDCDPQRTTSDWIQARNNNPKLASINCVQLYGKIRNDLLSLEQHYDFVIVDCGGQDNLALRATMSVASHILMPLRPKRRDLKTVSHMDDIVATCKMINPKLHASFVITQCPNLPNQANRILEAKEICKTYDINVLDSITYSRNIYDDSEESGLSVLEIEPKGKAAAEIRAIACEMFQVDCAASLTALLKPSTSIAGHHSQINQNQSNHLRGQYGTQRPQEKRYAI”, which “soluble on expression in E. coli” value is on record?
The value was “not soluble”.

With “SDNGDWGHRLTHPVTLNVGGHLYTTSISTLQRYPDSMLGAMFRGDFPTTRDAQGNYFIDRDGTLFRYILNFLRTSELTLPVDFTELDLLRKEADFYQIEPLIQCLNDPKPLYPLDTFEQVVELSSTRKLSKYSNPVAVIITQLTITTKVHSLLEGISNNFTKWNKHMMDTRDCQVSFTFGPCDYHQEVSLRVHLMDYITKQGFTIRNTRVHHMSERANENTVEHHWTFCRLAYKVED” as the sequence, how does the “soluble on expression in E. coli” value read?
The value was “soluble”.

With “MERELAHWVERLRERAEAEGLSFPPVAFQEVGPEEMAMLAAYGGFPRRYPHWRWGSAYLHYRETYRYGLARIYELVVNTVPVQAYLLRGNPLLAQKLVVAHVYAHADFFQNNLAFKPIPKDMLAEMAHHAAYVERAMERHGARSVEEFLDLALSLENLIDPHAPYIQRPAQKEEEAPKRLPVRPYLDPYVNPAPAFPKEAEEGASPEPLPPRPTRDILGFLARHAPLAPWQKGILEIVREESLYFAPQAATKILNEGWATYWHTRLLLPLLTPEEALEFAEMQANLLAPHGLNPYRLGYHLLMEVEERWDKGRFGPEYEALPLGERLRYERPTGEGRKKLFQVRTVYTDLNFLEEFLTPEFALRRGLFALEDLPRFAEAKKALLFRLTNLGYPIVELVDANYQNRGELLLAHAYEGVELDLRKTKAVLENLHRLWGRPVHLKTVVGGKETLLSAGA” as the sequence, how does the “soluble on expression in E. coli” value read?
Its value is “soluble”.

Which “soluble on expression in E. coli” value does the source give for “MSSIVEHVVLFKLNDDDVDSGKINSMVNGINELVNLDQVLHLYCGSIHRLITTTASDFTHVLHSRYRSKEDLNAYAIHPDHVRVVKESESIREDIMAVDWIAEQAPEALAPPLGSIGKITLLKLKENVMEEAKLEIMEVMKEKFEGIDQITVGENFSPGRSKDFSIGSISYFRDLGEIEAVDDQMKLQNDKIRDYVDDTIVVEFNVPSSS” here?
The value was “soluble”.

For “MKPVQSVSATQHYNPLTNLGQEASCSHEISGITQTEGMQATAATTQTAEQLTTARVRDITAAAKVIPDGTTVMSRKPEDLSQLQTAYLAAKNAPTHPDLYLKLCETFRVHDERHASEGHENICAKTMTARIDDDAIRVMAYASRGMHGGDVNNFLKFSFNSGLPNPISSALPSMLTFGASSFIGAVHGPWSGFGSALAFAAAKPFMAGGIQPAIVSLCDNIRGRNAPTVLAKGEVNDEIWLDAAAQTLEGLNEDTRRALTSFDDAVQAAITSVGIRDPKFLETDEGLELFFDHLSDTHFNCLREALEGVNNALQNTAPQTRESLRALEEASRPNMLEQRETTLKAEFSNLRQKEGNDWQRIPRSLRASGGTLTSGLSGLKRDEIPTRMNPALDRKSHFEGLNALASPAVGTSYAAAISLLQSPMAGLDERNKQKFNVKAAIVFYDAFTPEGKQRYLAGEEMDPDRDVDQAKLRGVFTSVSEYMVKSTQENLKQRQKVLGVEISEAGHALNALPENTSSITPPEIRAKVERYKALSADMSAVTQAIREGNPNFLTDLPDGEVKKAFDDCVNSGGMHVLENMTKVKYAKQGELKAQWTQKVSTDVSMFGLAGQFTPSIVNKLAAAICGGAGHIPNAVVGFLGAYSLAASFIGAQTQFAAINAKNNFREGNPKPTSLETFMRGNLAPVMQASANRHSQHALQGAEQAISTARQALNSSLGQNL”, which “soluble on expression in E. coli” value is on record?
The value was “not soluble”.

Which “soluble on expression in E. coli” value does the source give for “MPERIATVGWSNHEVPLALGVTPVGFEKVTWGDDDNNGILPWVEETLSKLGSDEPVLFDATDSIPFEEIANTAPDVILASYSGITQEDYDQLSQIAPVVAYPEIAWGTSLDEMIEMNSKAIGLEQEGKDLIADLDAEVASAIDANPELEHHHHHH” here?
Its value is “not soluble”.
